Experimental data from publication PMC8091081 (Infection and Immunity, 2021).

Legend:
[1] = target: PhtD of pneumococcal strain TIGR4 (serotype 4), endogenous (Streptococcus pneumoniae TIGR4 …, UniProt A0A0H2UPR0); assay: Western blot
[2] = target: PhtD of pneumococcal strain TCH8431 (serotype 19A), endogenous (Streptococcus pneumoniae TCH8431 …, UniProt A0A0H2UPR0, strain); assay: Western blot
[3] = target: MBP-PhtD fragment, amino acids 341 to 838 (Streptococcus pneumoniae TCH8431 …, UniProt A0A0H2UPR0, strain); assay: ELISA

B1: human MAb PhtD3 (antibody, V domains shown)
VH: QVQLVQSGPDVKKPGSSVKVSCKASGAAFESFAFAWVRQAPGQGFEWMGRIIPILETRDYAEKFQGRMTMTTDESTATAYMELNSLRFEDTAVYFCARDGHIMRTTLSDAALDVWGQGTTVIVSS
VL: DIVMTQSPVTLSLSPGERATLSCRASQSLTDNYLAWYQQKPGQAPRLLIYAASTRATGIPDRISGSGSGTDFTLTISRVEPEDFAMFYCQQYQNSPFTFGGGTTVEIK
binding result [1]: binds | binding result [2]: binds

B2: human MAb PhtD7 (antibody, V domains shown)
VH: EVQLVQSGAEVKKPGASVKVSCKASGDIFSDSYIHWVRQAPGQGPEWMGWVSPNTGATHYAQKLQGRVTMTSDTSISTAYLELTRLASDDTAVYYCARVLRGSYDFRGNYPHDFDYWGQGTLVTVSS
VL: QLVLTQPPSASASLGASVTLTCTLSRGHNNYPIAWLQKQTDKGPRYVMRLNSDGSHHKGDGIPDRFSGSSSGAERYLSISSLQPEDEAEYYCQTWDTGLQGVFGGGTKLFVL
binding result [3]: binds
